The values that follow come from publication doi:10.1101/2024.12.02.626348 (bioRxiv, 2024).

Assay in all cases: pull-down
Test [1] concerns the target His-Erk1 (human, UniProt P27361 1-379).
For test [2], the target named is GST-Erk1 (human, UniProt P27361 1-379).
In test [3] the target is GST-Erk2 (human, UniProt P28482 1-360).
Chain of GST-Erk2 (P28482 whole entry): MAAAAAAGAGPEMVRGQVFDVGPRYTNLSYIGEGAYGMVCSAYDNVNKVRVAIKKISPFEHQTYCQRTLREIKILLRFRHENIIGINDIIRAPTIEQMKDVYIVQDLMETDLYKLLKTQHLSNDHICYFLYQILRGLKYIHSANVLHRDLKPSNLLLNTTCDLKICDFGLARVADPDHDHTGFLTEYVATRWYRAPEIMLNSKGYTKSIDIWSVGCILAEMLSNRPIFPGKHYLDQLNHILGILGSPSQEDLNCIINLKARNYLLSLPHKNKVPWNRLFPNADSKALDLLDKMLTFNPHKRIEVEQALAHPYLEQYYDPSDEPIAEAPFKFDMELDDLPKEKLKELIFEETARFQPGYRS

Chain of His-Erk1 (P27361 whole entry): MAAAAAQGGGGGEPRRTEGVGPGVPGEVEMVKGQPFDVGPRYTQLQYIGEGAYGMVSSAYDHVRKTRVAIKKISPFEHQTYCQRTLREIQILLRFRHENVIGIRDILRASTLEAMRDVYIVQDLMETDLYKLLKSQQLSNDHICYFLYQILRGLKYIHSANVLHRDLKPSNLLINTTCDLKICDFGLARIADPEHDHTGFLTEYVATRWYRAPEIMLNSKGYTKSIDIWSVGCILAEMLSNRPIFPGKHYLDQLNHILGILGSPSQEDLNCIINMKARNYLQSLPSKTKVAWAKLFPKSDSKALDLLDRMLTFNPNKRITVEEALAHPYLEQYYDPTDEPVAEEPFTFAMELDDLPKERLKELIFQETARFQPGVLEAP
Chain of GST-Erk1 (P27361 whole entry): as above

B1: GST-Arl4D (natural protein, human, UniProt P49703 1-201, looked up)
chain: MGNHLTEMAPTASSFLPHFQALHVVVIGLDSAGKTSLLYRLKFKEFVQSVPTKGFNTEKIRVPLGGSRGITFQVWDVGGQEKLRPLWRSYTRRTDGLVFVVDAAEAERLEEAKVELHRISRASDNQGVPVLVLANKQDQPGALSAAEVEKRLAVRELAAATLTHVQGCSAVDGLGLQQGLERLYEMILKRKKAARGGKKRR
Take B1: the binding result in test [1] is “binds”.

B2: His-Arl4D (natural protein, human, UniProt P49703 1-201, looked up)
chain: MGNHLTEMAPTASSFLPHFQALHVVVIGLDSAGKTSLLYRLKFKEFVQSVPTKGFNTEKIRVPLGGSRGITFQVWDVGGQEKLRPLWRSYTRRTDGLVFVVDAAEAERLEEAKVELHRISRASDNQGVPVLVLANKQDQPGALSAAEVEKRLAVRELAAATLTHVQGCSAVDGLGLQQGLERLYEMILKRKKAARGGKKRR
For B2, the binding result in test [2] and in test [3] was “binds” in each case.
